T1: TNFR-6 alpha-Fc fusion protein (full length TNFR-6 alpha, amino acids 1-300 of SEQ ID NO:2, fused to the Fc … (human, UniProt O95407 30-300))
T1 construct: Construct M1-H300 fused to Fc (pA2Fc:TR6, baculovirus/Sf9); the secreted protein starts at Val 30 and is a disulfide-linked dimer; also called TNFR6-Fc; TR6-Fc
T1 sequence: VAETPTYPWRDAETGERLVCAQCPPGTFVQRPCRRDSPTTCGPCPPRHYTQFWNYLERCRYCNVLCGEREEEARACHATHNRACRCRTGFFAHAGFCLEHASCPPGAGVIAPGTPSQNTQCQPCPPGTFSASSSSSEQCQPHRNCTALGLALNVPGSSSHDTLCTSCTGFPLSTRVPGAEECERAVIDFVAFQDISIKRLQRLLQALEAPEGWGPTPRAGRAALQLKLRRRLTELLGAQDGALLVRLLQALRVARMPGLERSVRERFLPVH

T2: DR6-Fc (UniProt O75509 42-349, limits assumed)
T2 construct: extracellular domain
T2 sequence (looked up): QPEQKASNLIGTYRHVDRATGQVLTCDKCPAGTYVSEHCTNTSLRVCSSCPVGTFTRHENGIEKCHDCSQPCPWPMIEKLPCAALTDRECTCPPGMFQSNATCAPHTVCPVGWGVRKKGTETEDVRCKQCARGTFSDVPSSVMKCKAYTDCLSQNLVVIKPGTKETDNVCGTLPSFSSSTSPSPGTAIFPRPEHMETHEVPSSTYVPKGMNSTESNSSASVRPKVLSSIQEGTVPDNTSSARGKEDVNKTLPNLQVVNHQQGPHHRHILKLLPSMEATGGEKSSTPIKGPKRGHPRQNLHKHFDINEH

T3: Recombinant, untagged TNF-gamma-beta protein (aa 72-251) from E. coli (human, UniProt O95150 72-251)
T3 construct: also called TL1β; recombinant TL1β protein
T3 sequence (looked up): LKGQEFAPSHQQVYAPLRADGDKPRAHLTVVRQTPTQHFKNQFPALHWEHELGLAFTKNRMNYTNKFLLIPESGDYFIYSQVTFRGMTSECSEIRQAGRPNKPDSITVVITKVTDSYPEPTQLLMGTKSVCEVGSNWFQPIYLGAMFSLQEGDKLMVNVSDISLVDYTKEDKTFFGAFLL

T4: Murine FasL on transfected murine L929 cells (murine, UniProt P41047 1-279)
T4 sequence (looked up): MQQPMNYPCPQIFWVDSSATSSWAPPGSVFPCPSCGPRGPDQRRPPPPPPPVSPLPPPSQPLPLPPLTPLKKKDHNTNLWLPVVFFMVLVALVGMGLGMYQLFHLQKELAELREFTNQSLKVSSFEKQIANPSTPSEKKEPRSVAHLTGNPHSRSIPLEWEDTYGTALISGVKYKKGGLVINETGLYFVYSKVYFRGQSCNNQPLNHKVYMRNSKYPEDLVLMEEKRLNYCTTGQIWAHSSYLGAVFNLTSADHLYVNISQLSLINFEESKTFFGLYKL

T5: Soluble human FLAG-FasL (synthesized at HGS) (human, UniProt P48023 130-281, limits assumed)
T5 construct: called trimerized in the kinetic BIAcore run; cross-linked with FLAG antibody in the cell assays; also called FasL-Flag; trimerized FLAG-FasL
T5 sequence (looked up): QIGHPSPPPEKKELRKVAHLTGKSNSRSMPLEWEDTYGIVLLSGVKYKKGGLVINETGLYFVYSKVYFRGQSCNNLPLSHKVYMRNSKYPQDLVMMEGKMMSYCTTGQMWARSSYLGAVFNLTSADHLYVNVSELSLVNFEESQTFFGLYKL

B1: Human TR2-Fc (extracellular domain of TR2, aa1-192, fused to the Fc domain of human IgG1) (Fc fusion, not shown: a dimerising Fc or GST)
chain: LPSCKEDEYPVGSECCPKCSPGYRVKEACGELTGTVCEPCPPGTYIAHLNGLSKCLQCQMCDPAMGLRASRNCSRTENAVCGCSPGHFCIVQDGDHCAACRAYATSSPGQRVQKGGTESQDTLCQNCPPGTFSPNGTLEECQHQTKCSWLVTKA
notes: From CHO cells
B2: TNF-gamma-beta, full length, on transfected cells (ligand, human, UniProt O95150 1-251, looked up)
chain: MAEDLGLSFGETASVEMLPEHGSCRPKARSSSARWALTCCLVLLPFLAGLTTYLLVSQLRAQGEACVQFQALKGQEFAPSHQQVYAPLRADGDKPRAHLTVVRQTPTQHFKNQFPALHWEHELGLAFTKNRMNYTNKFLLIPESGDYFIYSQVTFRGMTSECSEIRQAGRPNKPDSITVVITKVTDSYPEPTQLLMGTKSVCEVGSNWFQPIYLGAMFSLQEGDKLMVNVSDISLVDYTKEDKTFFGAFLL
notes: whole, on cells; also called TL1β
B3: DR3-Fc (extracellular domain of human DR3, aa 1-199, fused to the Fc domain of human IgG1) (Fc fusion, UniProt Q93038 25-199, looked up, not shown: a dimerising Fc or GST)
chain: QGGTRSPRCDCAGDFHKKIGLFCCRGCPAGHYLKAPCTEPCGNSTCLVCPQDTFLAWENHHNSECARCQACDEQASQVALENCSAVADTRCGCKPGWFVECQVSQCVSSSPFYCQPCLDCGALHRHTRLLCSRRDTDCGTCLPGFYEHGDGCVSCPTSTLGSCPERCAAVCGWRQ
notes: range 1-199
B4: BCMA-Fc (Fc fusion, human, UniProt Q02223 1-54, looked up, not shown: a dimerising Fc or GST)
chain: MLQMAGQCSQNEYFDSLLHACIPCQLRCSSNTPPLTCQRYCNASVTNSVKGTNA
notes: Control surface in the BIAcore analysis
B5: Human LIGHT, full length, on cells (stably transfected 293F cells; endogenous on activated human T cells) (ligand, UniProt O43557 1-240, looked up)
chain: MEESVVRPSVFVVDGQTDIPFTRLGRSHRRQSCSVARVGLGLLLLLMGAGLAVQGWFLLQLHWRLGEMVTRLPDGPAGSWEQLIQERRSHEVNPAAHLTGANSSLTGSGGPLLWETQLGLAFLRGLSYHDGALVVTKAGYYYIYSKVQLGGVGCPLGLASTITHGLYKRTPRYPEELELLVSQQSPCGRATSSSRVWWDSSFLGGVVHLEAGEKVVVRVLDERLVRLRDGTRSYFGAFMV
notes: whole, on cells; also called LIGHT-transfectants; cell membrane LIGHT
B6: Human LIGHT protein, natural secreted form (aa83-240) (ligand, UniProt O43557 83-240, looked up)
chain: LIQERRSHEVNPAAHLTGANSSLTGSGGPLLWETQLGLAFLRGLSYHDGALVVTKAGYYYIYSKVQLGGVGCPLGLASTITHGLYKRTPRYPEELELLVSQQSPCGRATSSSRVWWDSSFLGGVVHLEAGEKVVVRVLDERLVRLRDGTRSYFGAFMV
notes: range 83-240; also called soluble LIGHT
B7: Full-length human TR6 (without Fc) (receptor)
chain: T1 sequence
notes: Full-length cDNA expressed in Sf9 cells with the natural leader; also called TR6 non-Fc; TR6-non-Fc

Legend:
[1] = molecular target: B6; assay: BIAcore, TR2-Fc immobilized, LIGHT in flow; TR2-Fc
Method: (§1) The amount of bound protein was determined during washing of the flow cell with HBS buffer (10 mM HEPES, pH 7.4, 150 mM NaCl, 3.4 mM EDTA, 0.005% Surfactant P20). The flow cell surface was regenerated by washing off the bound proteins with 20 microliters of 10 mM glycine-HCl pH 2.3. […] The on- and off-rates were determined according a kinetic evaluation program in the BiaEvaluation 3 software using a 1:1 binding model and the global analysis method.

[2] = molecular target: T1, TNFR-6 alpha-Fc fusion protein (full …); assay: FACS on transfected cells
DR6-Fc = molecular target: T2, DR6-Fc; assay: flow cytometry on HEK293F cells expressing full length TNF-gamma-beta
Method: (§2) One million cells, in 0.1 ml of FACS buffer (PBS, 0.1% BSA, 0.1% NaN₃), were incubated with 0.1-1 microgram of protein or antibody at RT for 15 min. The cells were washed with 3 ml of FACS buffer, reacted with biotinylated primary antibody, and stained with PE-conjugated secondary antibody at RT for 15 min. Cells were then washed again, resuspended in 0.5 microgram/ml of propidium iodide, and live cells were gated and analyzed on a FACScan using the CellQuest software (BD Biosciences).

[3] = molecular target: T3, Recombinant, untagged TNF-gamma-beta …; assay: BIAcore, DR3-Fc immobilized, TNF-gamma-beta 3-370 nM in flow; DR3-Fc
Method: (§3) TNFR-Fc were covalently immobilized to the BIAcore sensor chip (CM5 chip) via amine groups using N-ethyl-N′-(dimethylaminopropyl) carbodiimide/N-hydroxysuccinimide chemistry. […] The amount of bound protein was determined during washing of the flow cell with HBS buffer (10 mM HEPES, pH 7.4, 150 mM NaCl, 3.4 mM EDTA, 0.005% Surfactant P20). The flow cell surface was regenerated by displacing bound protein by washing with 20 microliters of 10 mM glycine-HCl, pH 2.3. For kinetic analysis, the on and off rates were determined using the kinetic evaluation program in BIAevaluation 3 software using a 1:1 binding model and the global analysis method.

[4] = molecular target: T3, Recombinant, untagged TNF-gamma-beta …; assay: BIAcore, three batches of TNF-gamma-beta; DR3-Fc, average of three batches
Method: as §3

[5] = molecular target: T3, Recombinant, untagged TNF-gamma-beta …; assay: BIAcore, receptor-Fc immobilized
Method: as §3

[6] = molecular target: T1, TNFR-6 alpha-Fc fusion protein (full …); assay: conclusion from flow cytometry
[7] = molecular target: B7; assay: flow cytometry competition on activated human T cells
[8] = molecular target: B7; assay: BIAcore; TR6 without Fc
Method: as §1

[9] = molecular target: T1, TNFR-6 alpha-Fc fusion protein (full …); assay: BIAcore, receptor immobilized, LIGHT in flow; TR6-Fc
Method: as §1

[10] = molecular target: T1, TNFR-6 alpha-Fc fusion protein (full …); assay: BIAcore; TR6-Fc
Method: as §1

[11] = molecular target: B2; assay: flow cytometry competition, competitor DR3-Fc
Method: as §2

[12] = molecular target: T4, Murine FasL on transfected murine L929 …; assay: cell-based or functional assay
[13] = molecular target: B6; assay: BIAcore
[14] = molecular target: T5, Soluble human FLAG-FasL (synthesized at …); assay: BIAcore

B1
Kd [1]: 4.56 nM

B2
binding result [2]: binds
binding result (DR6-Fc): no binding

B3
koff [3]: 0.00413 s⁻¹
kon [3]: 639000 M⁻¹ s⁻¹
Kd [4]: 6.45 nM

B4
binding result [5]: no binding (tested: 3-370 nM)

B5
binding result [6]: binds
binding result [7]: binds

B6
Kd [8]: 14.3 nM
koff [8]: 0.00483 s⁻¹
kon [8]: 338000 M⁻¹ s⁻¹
Kd [9]: 5.46 nM
koff [10]: 0.0023 s⁻¹
kon [10]: 422000 M⁻¹ s⁻¹

B7
molar ratio of TR6 to DR3-Fc at which no DR3-Fc binding was detected [11]: 2 molar ratio (TR6:DR3-Fc)
IC50 of inhibition of killing of A20 target cells by murine FasL-transfected L929 cells [12]: ~1 ng/mL
fold higher off rate against TR6-Fc [13]: ~2 fold
fold reduction in affinity against TR6-Fc [14]: 4 fold

— patent publication US20060234285A1 (Human Genome Sciences, published 2006)
